Source: US20060228350A1 (AstraZeneca / MedImmune, published 2006)
Blank lines part the entries; values can stand above or below the molecule they belong to.

Columns and labels:
[1] = target: Human EphA2-Fc fusion protein (human EphA2 fused with the Fc portion of a human IgG1) (human) (UniProt P29317); test: single point capture ELISA, 1 µg goat anti-human Fd, biotinylated EphA2-Fc 300-600 ng/well
[2] = target: Human EphA2-Fc fusion protein (human EphA2 fused with the Fc portion of a human IgG1) (human) (UniProt P29317); test: single point capture ELISA, 500 ng goat anti-human Fab; same plate as VH-233/VL-8G7
[3] = target: Human EphA2-Fc fusion protein (human EphA2 fused with the Fc portion of a human IgG1) (human) (UniProt P29317); test: single point capture ELISA, 500 ng goat anti-human Fab; same plate as VH-7E8/VL-8G7
[4] = target: Human EphA2-Fc fusion protein (human EphA2 fused with the Fc portion of a human IgG1) (human) (UniProt P29317); test: single point capture ELISA, 500 ng goat anti-human Fab; same plate as VH-233/VL-12C8
[5] = target: Human EphA2-Fc fusion protein (human EphA2 fused with the Fc portion of a human IgG1) (human) (UniProt P29317); test: single point capture ELISA, 500 ng goat anti-human Fab; same plate as VH-2G6/VL-12C8
[6] = target: Human EphA2-Fc fusion protein (human EphA2 fused with the Fc portion of a human IgG1) (human) (UniProt P29317); test: single point capture ELISA, 500 ng goat anti-human Fab; same plate as VH-6H11/VL-8G7
[7] = target: Human EphA2-Fc fusion protein (human EphA2 fused with the Fc portion of a human IgG1) (human) (UniProt P29317); test: single point capture ELISA, 20 ng goat anti-human Fab, biotinylated EphA2-Fc 300 ng/well
[8] = target: Human EphA2-Fc fusion protein (human EphA2 fused with the Fc portion of a human IgG1) (human) (UniProt P29317); test: single point capture ELISA, 100 ng goat anti-human Fab, biotinylated EphA2-Fc 300 ng/well
[9] = target: Human EphA2-Fc fusion protein (human EphA2 fused with the Fc portion of a human IgG1) (human) (UniProt P29317); test: single point capture ELISA, 500 ng goat anti-human Fab, biotinylated EphA2-Fc 300 ng/well
[10] = target: Human EphA2-Fc fusion protein (human EphA2 fused with the Fc portion of a human IgG1) (human) (UniProt P29317); test: as above; remark: listed apart in the source
[11] = target: Human EphA2-Fc fusion protein (human EphA2 fused with the Fc portion of a human IgG1) (human) (UniProt P29317); test: as above; remark: listed apart in the source
[12] = target: Human EphA2-Fc fusion protein (human EphA2 fused with the Fc portion of a human IgG1) (human) (UniProt P29317); test: single point capture ELISA, periplasmic extracts from 15 ml culture, 500 ng goat anti-human Fab
[13] = target: Human EphA2-Fc fusion protein (human EphA2 fused with the Fc portion of a human IgG1) (human) (UniProt P29317); test: single point capture ELISA, periplasmic Fab on 500 ng goat anti-human Fab, biotinylated EphA2-Fc 300 ng/well
[14] = target: T1, Human EphA2-Fc fusion protein (human EphA2 fused with the Fc portion of a human IgG1) (human, UniProt P29317 24-534, limits assumed); test: BIAcore, human IgG1 format on immobilized EphA2-Fc
T1 construct: also called biotinylated human EphA2-Fc; not shown: Fc portion of a human IgG1

[15] = target: T1, Human EphA2-Fc fusion protein (human …); test: SPR (BIAcore 3000), EphA2-Fc coupled to CM5 chip, IgG in solution, koff/kon
Protocol: (§1) IgGs were diluted in 0.01 M HEPES pH 7.4 containing 0.15 M NaCl, 3 mM EDTA and 0.005% P20. All subsequent dilutions were made in the same buffer. All binding experiments were performed at 25° C. with IgG concentrations typically ranging from 100 nM to 0.2 nM at a flow rate of 75 μL/min; data were collected for approximately 25 min and one 1-min pulse of 1 M NaCl, 50 mM NaOH was used to regenerate the surfaces. IgGs were also flowed over an uncoated cell and the sensorgrams from these blank runs subtracted from those obtained with EphA2-Fc-coupled chips. Data were fitted to a 1:1 Langmuir binding model. This algorithm calculates both the kₒₙ and the koff, from which the apparent equilibrium dissociation constant, KD, is deduced as the ratio of the two rate constants (koff/kₒₙ).

[16] = target: T1, Human EphA2-Fc fusion protein (human …); test: SPR (BIAcore 3000), EphA2-Fc coupled to CM5 chip, IgG in solution, 1:1 Langmuir fit
Protocol: as §1

[17] = target: T1, Human EphA2-Fc fusion protein (human …); test: SPR (BIAcore 3000), EphA2-Fc coupled to CM5 chip (~500 RU), IgG in solution, koff/kon
Protocol: (§2) EphA2-Fc was coupled to the dextran matrix of a CM5 sensor chip (Pharmacia Biosensor) using an Amine Coupling Kit as described (B. Johnsson et al., 1991, Anal. Biochem. 198: 268-277) at a surface density of approximately 500 RU. IgGs were diluted in 0.01 M HEPES pH 7.4 containing 0.15 M NaCl, 3 mM EDTA and 0.005% P20. All subsequent dilutions were made in the same buffer. All binding experiments were performed at 25° C. with IgG concentrations typically ranging from 100 nM to 0.2 nM at a flow rate of 75 μL/min; data were collected for approximately 25 min and two 30-sec pulse of 1M NaCl, 50 mM NaOH was used to regenerate the surfaces. IgGs were also flowed over an uncoated cell and the sensorgrams from these blank runs subtracted from those obtained with EphA2-Fc-coupled chips. Data were fitted to a 1:1 Langmuir binding model. This algorithm calculates both the kₒₙ and the koff, from which the apparent equilibrium dissociation constant, KD, is deduced as the ratio of the two rate constants (koff/kₒₙ).

[18] = target: T1, Human EphA2-Fc fusion protein (human …); test: SPR (BIAcore 3000), EphA2-Fc coupled to CM5 chip (~500 RU), IgG in solution, 1:1 Langmuir fit
Protocol: as §2

Sequence of Human EphA2-Fc fusion protein (human EphA2 fused with the Fc portion of a human IgG1) (human) (P29317 24-534 limits assumed): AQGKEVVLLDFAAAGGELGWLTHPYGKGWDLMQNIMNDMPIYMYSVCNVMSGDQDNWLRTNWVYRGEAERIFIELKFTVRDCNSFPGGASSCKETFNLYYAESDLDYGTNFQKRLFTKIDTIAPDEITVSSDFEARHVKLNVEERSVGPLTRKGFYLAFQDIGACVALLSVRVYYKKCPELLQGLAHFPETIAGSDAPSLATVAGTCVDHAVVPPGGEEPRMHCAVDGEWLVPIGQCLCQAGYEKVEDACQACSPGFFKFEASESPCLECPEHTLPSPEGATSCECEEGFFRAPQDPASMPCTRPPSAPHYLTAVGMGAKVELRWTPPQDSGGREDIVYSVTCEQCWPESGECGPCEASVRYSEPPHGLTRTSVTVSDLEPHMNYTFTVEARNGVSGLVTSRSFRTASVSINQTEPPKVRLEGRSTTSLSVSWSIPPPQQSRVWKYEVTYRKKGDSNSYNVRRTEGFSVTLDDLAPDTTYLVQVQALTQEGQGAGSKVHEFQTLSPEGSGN
T1 sequence (P29317 24-534 limits assumed): as above

- OD450 (background signal) [1]: 0.3 OD450
Molecule: irrelevant antibody (background control of Example 2)

- OD450 (background signal) [2]: 0.2 OD450
- OD450 (background signal) [3]: 0.2 OD450
- OD450 (background signal) [4]: 0.1 OD450
- OD450 (background signal) [5]: 0.3 OD450
- OD450 (background signal) [6]: 0.2 OD450
- OD450 (background signal) [7]: 0.1 OD450
- OD450 (background signal) [8]: 0.1 to 0.4 OD450
- OD450 (background signal) [9]: 0.06 to 0.2 OD450
- OD450 (background signal) [10]: 0.3 OD450
- OD450 (background signal) [11]: 0.07 to 0.1 OD450
Molecule: irrelevant antibody (MEDI-493)

- fold avidity decrease against parental mAb B233 [14]: 160 fold
- Kd [15]: 48 nM
- koff [16]: 0.00045 s⁻¹
- kon [16]: 9300 M⁻¹ s⁻¹
B6: VH-7E8/VL-8G7 (humanized) full length human IgG1 (antibody, V domains shown)
VH: EVQLVESGGGLVKPGGSLRLSCAASGFTFSDYSMNWVRQASGKGLEWVGFIRNKANDYTTEYSASVKGRFTISRDDSKNTLYLQMNSLKTEDTAVYYCTTYPRYHAMDSWGQGTLVTVSS
VL: EIVLTQSPATLSVSPGERATLSCRASQSISNNLHWYQQKPGKAPKSLIYYVFQSISGVPSRFSGSGSGTDFTLTINSLEAEDAATYYCQQSNSWPLTFGGGTKVDIK
notes: Human IgG1 / human kappa, expressed in HEK 293 cells

- Kd [15]: 0.4 nM
- koff [16]: 0.00011 s⁻¹
- kon [16]: 280000 M⁻¹ s⁻¹
B7: mAb B233 (mouse anti-human EphA2 monoclonal antibody) (antibody, V domains shown)
VH: EVKLVESGGGLVQPGGSLSLSCAASGFTFTDYSMNWVRQPPGKALEWLGFIRNKANDYTTEYSASVKGRFTISRDNSQSILYLQMNALRAEDSATYYCVRYPRYHAMDSWGQGTSVTVSS
VL: DIVLTQSPATLSVTPGDSVNLSCRASQSISNNLHWYQQKSHESPRLLIKYVFQSISGIPSRFSGSGSGTDFTLSINSVETEDFGMYFCQQSNSWPLTFGAGTKLELK
notes: Murine hybridoma antibody; also called B233 (murine); parental mAb B233

- Kd [15]: 0.3 nM
- koff [16]: 8e-05 s⁻¹
- kon [16]: 240000 M⁻¹ s⁻¹
B8: VH-233/VL-233 IgG (chimaeric form of mAb B233, full length human IgG1) (antibody, V domains shown)
VH: EVKLVESGGGLVQPGGSLSLSCAASGFTFTDYSMNWVRQPPGKALEWLGFIRNKANDYTTEYSASVKGRFTISRDNSQSILYLQMNALRAEDSATYYCVRYPRYHAMDSWGQGTSVTVSS
VL: DIVLTQSPATLSVTPGDSVNLSCRASQSISNNLHWYQQKSHESPRLLIKYVFQSISGIPSRFSGSGSGTDFTLSINSVETEDFGMYFCQQSNSWPLTFGAGTKLELK
notes: Human IgG1 / human kappa constant regions, expressed in HEK 293 cells; also called VH-B233/VL-B233 (chimeric); chimaeric B233

- Kd [17]: 5.94 nM
- koff [18]: 0.00307 s⁻¹
- kon [18]: 517000 M⁻¹ s⁻¹
B9: mAb EA2 (mouse anti-human EphA2 monoclonal antibody) (antibody, V domains shown)
VH: DVKLVESGGGLVKPGGSLKLSCAASGFTFSSYTMSWVRQTPEKRLEWVATISSGGTYTYYPDSVKGRFTISRDNAKNTLYLQMSSLKSEDTAMYYCTREAIFTYWGQGTLVTVSA
VL: DIKMTQSPSSMYASLGERVTITCKASQDINNYLSWFQQKPGKSPKTLIYRANRLVDGVPSRFSGSGSGQDYSLTISSLEYEDMGIYYCLKYDEFPYTFGGGTKLEIK
notes: Murine hybridoma antibody; also called EA2 (murine); parental mAb EA2

Continued, molecule first:

B1: VH-2G6/VL-12C8 Fab (framework-shuffled, fully humanized clone from library B) (Fab, from another filing, V domains shown)
VH: EVQLVESGGGVVRPGGSLRLSCAASGFTVSDYSMNWVRQAPGKGLEWIGFIRNKANDYTTEYSASVKGRFTISRDDSKNTLYLQMNSLKTEDTAVYYCTTYPRYHAMDSWGQGTMVTVSS
VL: AIQLTQSPSSLSASVGDRVTITCRASQSISNNLHWYLQKPGQSPQLLIYYVFQSISGVPSRFSGSGSGTDFTLTISSLQPEDFATYYCQQSNSWPLTFGGGTKLEIK
- [specific OD450/background OD450] ratio [12]: 40
- OD450 [13]: 2.8 OD450

B2: VH-2G6/VL-12C8 (humanized) full length human IgG1 (antibody, V domains shown)
VH: EVQLVESGGGVVRPGGSLRLSCAASGFTVSDYSMNWVRQAPGKGLEWIGFIRNKANDYTTEYSASVKGRFTISRDDSKNTLYLQMNSLKTEDTAVYYCTTYPRYHAMDSWGQGTMVTVSS
VL: AIQLTQSPSSLSASVGDRVTITCRASQSISNNLHWYLQKPGQSPQLLIYYVFQSISGVPSRFSGSGSGTDFTLTISSLQPEDFATYYCQQSNSWPLTFGGGTKLEIK
notes: as for B6
- fold avidity decrease against parental mAb B233 [14]: 10 fold
- Kd [15]: 3 nM
- koff [16]: 0.00019 s⁻¹
- kon [16]: 64000 M⁻¹ s⁻¹

B3: VH-4H5/VL-4H5 full length human IgG1 (antibody, V domains shown)
VH: QVQLLESGGGLVQPGGSLRLSCAASGFTFSSYTMSWVRQAPGQALEWMGTISSGGTYTYYPDSVKGRFTISRDNAKNSLYLQMNSLRAEDTAVYYCAREAIFTYWGRGTLVTVSS
VL: DIQLTQSPSSLSASVGDRVTITCKASQDINNYLSWYQQKPGQAPRLLIYRANRLVDGVPDRFSGSGYGTDFTLTINNIESEDAAYYFCLKYDVFPYTFGQGTKVEIK
notes: as for B6
- fold avidity increase against parental mAb EA2 [14]: 90 fold
- Kd [17]: 0.067 nM
- koff [18]: 6.6e-05 s⁻¹
- kon [18]: 980000 M⁻¹ s⁻¹

B4: VH-4H5/VL-“corrected” 4H5 full length human IgG1 (antibody, V domains shown)
VH: QVQLLESGGGLVQPGGSLRLSCAASGFTFSSYTMSWVRQAPGQALEWMGTISSGGTYTYYPDSVKGRFTISRDNAKNSLYLQMNSLRAEDTAVYYCAREAIFTYWGRGTLVTVSS
VL: DIQLTQSPSSLSASVGDRVTITCKASQDINNYLSWYQQKPGQAPRLLIYRANRLVDGVPDRFSGSGYGTDFTLTINNIESEDAAYYFCLKYDEFPYTFGQGTKVEIK
notes: Human IgG1 / human kappa, expressed in HEK 293 cells; also called 4H5 corrected
- fold avidity increase against parental mAb EA2 [14]: 4 fold
- Kd [17]: 1.4 nM
- koff [18]: 0.00105 s⁻¹
- kon [18]: 750000 M⁻¹ s⁻¹

B5: VH-6H11/VL-8G7 (humanized) full length human IgG1 (antibody, V domains shown)
VH: EVQLVESGGGLVQPGGSLRLSCAASGFTFSDYSMNWVRQAPGKGLEWVAFIRNKANDYTTEYSASVKGRFTISRDNSKNTLYLQMNSLRAEDTAMYYCARYPRYHAMDSWGQGTLVTVSS
VL: EIVLTQSPATLSVSPGERATLSCRASQSISNNLHWYQQKPGKAPKSLIYYVFQSISGVPSRFSGSGSGTDFTLTINSLEAEDAATYYCQQSNSWPLTFGGGTKVDIK
notes: as for B6
- fold avidity decrease against parental mAb B233 [14]: 6 fold
- Kd [15]: 1.9 nM
- koff [16]: 0.00018 s⁻¹
- kon [16]: 96000 M⁻¹ s⁻¹
